Experimental data reported in patent publication US20220125947A1 (published 2022).
Numbering of substitutions follows the chain as printed.

B1: VG9B369 (antibody, human IgG1, kappa, V domains shown)
VH: EVQLLESGPTLVKPTQTLTLTCTFSGFSLSTIGVGVGWIRQPPGKALEWLSLIYWNDDKRYNPSLKSRLTITKDTSKNQVVLTMTNMDPVDTATYYCAHSHDWVHAFDIWGQGTMVTVSS
VL: DIVMTQSPSSLSASVGDRVTITCQASQDISHYLNWYQQKPGKAPKFLIYDASNLDTGVPSRFSGSGSGTDFTFTISSLQPEDIATYYCQQYDNFPLTFGGGTKVEIKR
notes: IgG1, kappa; specificity column: g/d constant
B2: VG9B447 (antibody, human IgG1, lambda)
heavy: not shown
light: SYELTQPASVSGSPGQSITISCTGTSSDVGGYNYVSWYQQHPGKAPKLMIYEVSNRPSGVSNRFSGSKSGNTASLTISGLQAEDEADYYCSSYTSTSVVFGGGTKLTVLGQPKAAPSVTLFPPSSEELQANKATLVCLISDFYPGAVTVAWKADSSPVKAGVETTTPSKQSNNKYAASSYLSLTPEQWKSHRSYSCQVTHEGSTVEKTVAPTECS
notes: IgG1, lambda; specificity column: g/d constant
B3: VG9B386 (antibody, human IgG1, kappa, V domains shown)
VH: EVQLVESGGGLVKPGGSLRLSCAASGFTFSSYSMIWVRQAPGKGLEWVSSIGSSSTYIYYADSVRGRFTISRDNAKTSLYLQMNSLRAEDTAMYFCARDGETGGFDYWGQGILVTVSS
VL: EIVMTQSPGTLSLSPGERATLSCRASQSISRSYLAWYQQKPGQPPRLLIYGPSNRATGIPDRFSASGSGTDFTLTNSRLEPEDFAVYYCQQYGSLPLTFGGGTKVEIKR
notes: as for B1
B4: VG9B136 (antibody, human IgG1, kappa, V domains shown)
VH: QVQLQQSGPGLVKPSQTLSLTCAISGDSVSSNRAAWNWIRQSPSKGLEWLGRTYYRSKWYNEYAASVKSRMSINPDTSKNQFSLQLNSVTPEDTALYYCARDLWELREACDIWGQGTMVTVSS
VL: DIVMTQSPSFLSTFVGDRVTITCRASQGISSYLAWYQQKPGKVPKLLIYVASTLQSGVPSRFSGSGSGTEFTLTISSLQPEDFATYYCQQLNSYPFTFGPGTKVDIKR
notes: as for B1
B5: VG9B112 (antibody, human IgG1, kappa, V domains shown)
VH: QVQLQQSGPGLVKPSQTLSLTCAISGDSVSSNSAAWNWIRQSPSRGLEWLGGTYYRSKWFNNYAVSVKSRITINPDTSTNQFSLQLNSVTPADTAVYYCARGEWGLRDAFDIWGQGTMVTVSS
VL: B4 VL with V3Q, T13A, F14S, T20I, S30H, F96W, P100Q, V104L, D105E
notes: as for B1
B6: VG9B410 (antibody, human IgG1, kappa)
heavy: not shown
light: DIQMTQSPSSVSASVGDRVTITCRASQGINSWLAWYQQKPGNAPKLLIYAASSLQSGVPSRFSGIGSGTDFIFTISSLQPEDFASYYCQQANSFPWTFGQGTKVEIKRTVAAPSVFIFPPSDEQLKSGTASVVCLLNNFYPREAKVQWKVDNALQSGNSQESVTEQDSKDSTYSLSSTLTLSKADYEKHKVYACEVTHQGLSSPVTKSFNRGEC
notes: as for B1
B7: VG9B47 (antibody, human IgG1, kappa, V domains shown)
VH: QVQLVQSGAEVKKPGSSVKVSCKASGGSFSNYAISWMRQAPGQGLEWMGGIIPFFGTPDYAQKFQGRVTITADKSTSTAYMELSSLRSEDTAVYYCSTGGGYGDYDYYYGINVWGQGTMVTVSS
VL: DIVMTQSPLSSPVDLGQPASISCRSSQSLVHSDGNTYLSWLQQRPGQPPRLLIYKISNRFSGVPDRFSGSGAGTDFTLKISRVEAEDVGVYYCMQAKEFPLTLGGGTKVDIKR
notes: as for B1
B8: VG9B96 (antibody, human IgG1, kappa, V domains shown)
VH: EVQLVQSGAEVKKPGSSVKVSCKASGGTFSNYAISWVRLAPGQGLEWMGGIIPIFSAGTYAQRFQGRVTITADKSTSTAYMELNSLRSEDTAVYYCSSNSGTYYDYYYGMDVWGQGTMVTVSS
VL: B7 VL with P12H, D14T, S57F, F60L, E98Q, L103F, D110E
notes: as for B1
B9: VG9B77 (antibody, human IgG1, kappa, V domains shown)
VH: EVQLVESGAEVMKPGSSVKVSCKASGGTFSSYAISWVRQAPEQGLEWMGGIIPFFGTADYAQKFQGRVTITADKSTNTAYMELTSLRSEDTAVYYCATATVTTDYYYGMDVWGQGTMVTVSS
VL: B7 VL with D1E, S10F, D14T, K55E, S61T, K97R, E98Q, L103F, D110E
notes: as for B1
B10: VG9B125 (antibody, human IgG1, kappa, V domains shown)
VH: EVQLVESGGTLVQPGGSLRLSCAVSGFTFSSYDMNWVRQAPGKGLEWVSYISSSSTAKYYADSVKGRFTISRDNAKNSLYLQMNSLWDEDTAVYYCAREDIVVVTPILQHWGQGTTVTVSS
VL: EIVMTQSPATLSLSPGERAILSCRASQSVSKDLAWYQQKPGQAPRLLIYDASNRATGIPARISGSGSGTDFTLTISSLEPEDFAVYYCQQRINWPLFTFGPGTKVEIKR
notes: as for B1
B11: VG9B144 (antibody, human IgG1, lambda, V domains shown)
VH: QVQLVQSGAEVKKPGASVKVSCKASGYTFTGYYMHWMRQAPGQGLEWMGWINPNSGATNKEQKFQGRVTMTRDTSISTAYMELSRLRSDDTAVYYCAREDDAFDVWGQGTMVTVSS
VL: SSELTQDPAVSVALGQTVRITCQGDNLRNYYATWFQQKPGQAPVLVFFGKNNRPSGIPDRFSGSSSGDTASLTITGAQAEDEADYYCNSRDSSGNHVVFGGGTKLTVLG
notes: as for B2
B12: VG9B392 (antibody, human IgG1, lambda, V domains shown)
VH: QVQLVQSGAEVKRPGASAKVSCKTSGYTFTGYYIHWVRQAPGQGLEWMGWINPNSGYTNSAQKFQGRVSMTRDTSISTVYMELSRLRSDDTAVYYCAREDDAFDIWGQGTLVTVSS
VL: B11 VL with N26S, N29S, T33R, F35Y, F47I, F48Y, Q78L, S92N, L105V
notes: as for B2
B13: VG9B379 (antibody, human IgG1, lambda, V domains shown)
VH: EVQLVQSGPEVKKPGASVKVSCKASGYTFTGDYIHWVRQVPGQGLEWMGWINPNSGGTNYAQKFQGRVTMTRDTSISTAFMELSRLRSDDTAVYYCAREGGVAPAAPDAFDIWGQGTMVTVSS
VL: B11 VL with N26S, N29S, T33R, F35Y, L45V, F47I, F48Y, D68N, V97R
notes: as for B2
B14: VG9B387 (antibody, human IgG1, lambda, V domains shown)
VH: EVQLVESGAEVKKPGASVKVSCKASGFTFTGYYLQWVRQAPGQGLEWMGWINPNSGYTDYAQRFQDRVTMTRDTSINTAYMELSRLRSDDTAVYYCARLDDAFDVWGQGTMVTVSS
VL: B11 VL with S2Y, N26S, T33I, F35Y, F47I, D68T, A77T, V97W
notes: as for B2
B15: VG9B58 (antibody, human IgG1, kappa, V domains shown)
VH: QVQLQESGPGLVKPSETLSLTCTVSGGSIKSSYWTWIRQPPGKGLEWIGYMFYLGSTNYNPSLKSRVTMSIDTSRNQFSLKLSSVTAADTAVYYCSRERPVLDAFDIWGQGTMVTVSS
VL: DIQMTQSPSAMSASVGDRVTITCRASQDITNYLAWFQQKPGKVPKRLIYAASSLQGGVPSRFSGSGSGTEFTLTISSLQPEDFSTYYCLQHDTYPYTFGQGTKVDIKR
notes: IgG1, kappa; also called antibody #28
B16: VG9B417 (antibody, human IgG1, kappa)
heavy: not shown
light: B6 light with Q3V
notes: IgG1, kappa; also called antibody #27

Each binder was assayed against T1, γδ T cell receptor on human γδ T cells (human) (assay: flow cytometry DRC binding 37 C, human γδ T cells).
T1 construct: whole, on cells; Target is the γδ TCR on a mixed population of human γδ T cells; also called AG000003021 (γδ T cells)
Procedure: (§1) Binding of antibodies to human γδ T cells or SKW cell lines expressing Vγ9/Vδ2, Vγ9/Vδ2 or Vγ5/Vδ2 was carried out by flow cytometry. Briefly, the cells were centrifuged at 300×g for 5 minutes and the pellet was resuspended in 34 ml fresh media (in RPMI+10% FBS). 50 μL of the cells were then plated (44K cells/well) into assay plates. Samples were incubated for one hour at 37° C. in tissue culture (TC) incubator followed by wash steps by adding 100 μl FACS staining buffer. Secondary detention antibodies (A647 conjugated anti-human IgG Fc specific antibody (2 μg/mL) along with AF488 anti mouse CD3, clone OKT3 at 1 ug/mL) were added at 50 μL/well to appropriate wells according to the plate map. After incubating for 60 minutes at 37° C. in the TC incubator, cells were again washed as described above. This is followed by resuspension in 20 μL/well running buffer containing 1:1000 dilution of Sytox blue dead cell stain and the plates were run on iQue Screener.
(§2) Gating and data analysis: Human anti-human Vγ9 antibody (VG9B2 mAb at 10 nM) was used to mark the gating of positive population. All cells were first gated for singlets on SCS-A vs. SCS-H dot plot, live/dead followed by CD3 positive population, and this subset of CD3 positive population was gated for Vγ9 positive binding using positive control mAb. Cells were also assessed for cell binding of control mAbs by RL1 (A647) Geomeans from the live cell population. Advanced metrics were used and normalization metrics were chosen to calculate fold over background wells containing secondary antibody alone (designated as ‘background’ within ForeCyt settings).

| Max. Activity | Binder |
| --- | --- |
| 2430 fold over background | B1 |
| 1420 fold over background | B2 |
| 2110 fold over background | B3 |
| 2680 fold over background | B4 |
| 1990 fold over background | B5 |
| 2250 fold over background | B6 |
| 1560 fold over background | B7 |
| 1020 fold over background | B8 |
| 772 fold over background | B9 |
| 1990 fold over background | B10 |
| 2430 fold over background | B11 |
| 1250 fold over background | B12 |
| 1460 fold over background | B13 |
| 1970 fold over background | B14 |

Each binder was assayed against T2, γδ T cell receptor on human γδ T cells (human) (assay: flow cytometry, dose-response binding at 37 C on human γδ T cells).
T2 construct: also called AG000003021 (γδ T cells)
Procedure: as §1, §2

| Max. Activity | Binder |
| --- | --- |
| 2690 fold over background | B15 |
| 2700 fold over background | B16 |
